The Kd is the free concentration of one partner at which half of the binding sites on the other are occupied at equilibrium, for simple one-to-one binding.

The values that follow come from article doi:10.1101/2023.07.18.549521 (bioRxiv, 2023).

B1: full-length tepsin-GST (residues 1-525) (natural protein)
chain: MAAAPPLRDRLSFLHRLPILLKGTSDDDVPCPGYLFEEIAKISHESPGSSQCLLEYLLSRLHSSSGHGKLKVLKILLYLCSHGSSFFLLILKRNSAFIQEAAAFAGPPDPLHGNSLYQKVRAAAQDLGSTLFSDTVLPLAPSQPLGTPPATGMGSQARPHSTLQGFGYSKEHGRTAVRHQPGQAGGGWDELDSGPSSQNSSQNSDLSRVSDSGSHSGSDSHSGASREPGDLAERVEVVALSDCQQELSLVRTVTRGPRAFLSREEAQHFIKACGLLNCEAVLQLLTCHLRGTSECTQLRALCAIASLGSSDLLPQEHILLRTRPWLQELSMGSPGPVTNKATKILRHFEASCGQLSPARGTSAEPGPTAALPGPSDLLTDAVPLPGSQVFLQPLSSTPVSSRSPAPSSGMPSSPVPTPPPDASPIPAPGDPSEAEARLAESRRWRPERIPGGTDSPKRGPSSCAWSRDSLFAGMELVACPRLVGAGAAAGESCPDAPRAPQTSSQRTAAKEPPGSEPSAFAFLNA
B2: AP-4 β4 appendage domain (residues 615-739) (domain or fragment, UniProt Q9Y6B7 615-739, looked up)
chain: SGALMLVPNRQLTADYFEKTWLSLKVAHQQVLPWRGEFHPDTLQMALQVVNIQTIAMSRAGSRPWKAYLSAQDDTGCLFLTELLLEPGNSEMQISVKQNEARTETLNSFISVLETVIGTIEEIKS

Assay [1] has as its target T1, His6x-LC3B (residues 1-120) (UniProt Q9GZQ8 1-120). The assay is described as follows: pull-down.
Assay [2] has as its target T1, His6x-LC3B (residues 1-120). The assay is described as follows: ITC.
For assay [3], the target named is B1. The assay is described as follows: pull-down.

Turning to B1, in assay [1], the binding result is given as “binds”.

Molecule SGGGWDELDS [tepsin LIR motif peptide (residues 185-193)] came in with a dissociation constant (Kd) in assay [2] of 44.4 µM.

Take B2: the binding result in assay [3] is “binds”.
